Data set [1] has as its target T1, Mcp (sensing domain; truncated Mcp).
T1 construct: predicted extracellular sensing domain, aa 43-325, EcoRI-HindIII in pET-28a(+), His-tagged, E. coli, Ni-NTA; one of 20 mcp genes in the genome; Trp residues W44, W166, W254, W308
The data set is described as follows: intrinsic tryptophan fluorescence quenching at […] nm. Type of data set: binding, Agrobacterium tumefaciens. Particulars: 1.0 μM protein, 0-25 μM As(III), 1 h, room temperature.

In data set [2] the test system is T2, AioR DNA-binding domain (HTH) (Agrobacterium tumefaciens GW4), ORF:ca4d298f.
T2 sequence: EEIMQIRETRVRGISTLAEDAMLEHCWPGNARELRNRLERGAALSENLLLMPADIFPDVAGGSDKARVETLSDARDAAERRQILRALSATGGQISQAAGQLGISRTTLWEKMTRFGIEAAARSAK
The data set is described as follows: competition. The conditions noted are these: 20 mM Tris-HCl pH 7.0, 50 mM NaCl, 1 mM DTT, 10 mM MgCl2, 100 ug/mL BSA; 28 C, 30 min; 6% native PAGE in 1x TGE.

Data set [3] has the same test system. Nature of the data set: DNase I footprinting. Particulars: 20 mM Tris-HCl pH 7.0, 50 mM NaCl, 1 mM DTT, 10 mM MgCl2, 100 ug/mL BSA; 28 C, 30 min; 6% native PAGE in 1x TGE.
Data set [4] shares this test system. The data set is described as follows: EMSA. Particulars: 20 mM Tris-HCl pH 7.0, 50 mM NaCl, 1 mM DTT, 10 mM MgCl2, 100 ug/mL BSA; 28 C, 30 min; 6% native PAGE in 1x TGE.

Take `O[As](O)O` [As(III)]: the Kd in data set [1] came out at 11 ± 3.02 µM. “TACGGAAAGCACAATACGTGTGCGAATGAAACCAGTTTGCAGTGTTCGGATTTCCGAACATCATTGAAATAAATGCCGTTATTTTGTGCAGTATAGATTGATTAATATGTTTTATTTATAATATAAATTTTTGCTACATAGCAGTATTCGGATTTAATCGGAGCCAGCATTTGCTTATTGCTACATATATAAACACCTATAAGCTCTAATATGATTCTTTTATGACAATAATATCGAAAAATTAACTATGCGATCCCAG (double strand) [mcp regulatory region, 259 bp]”: the binding entry in data set [2], in data set [3] and in data set [4] was “binds” each time. In the case of “TACGGAAAGCACAATACGTGTGCGAATGAAACCAGTTTGCAGTTGTCGGATTTCCGCTTATCATTGAAATAAATGCCGTTATTTTGTGCAGTATAGATTGATTAATATGTTTTATTTATAATATAAATTTTTGCTACATAGCAGTATTCGGATTTAATCGGAGCCAGCATTTGCTTATTGCTACATATATAAACACCTATAAGCTCTAATATGATTCTTTTATGACAATAATATCGAAAAATTAACTATGCGATCCCAG (double strand) [mutant mcp regulatory region]”, the binding entry in data set [4] is “no binding”. On the same count and under the same terms, the result for “TTTCACGCACGACACTCTGGGAGAAGATGACGCGTTTCGGAATAGAAGCAGCCGCACGTTCGGCCAAATGAACAACGGCGGCGAGACGCTGTTCGGAAAAGCGAACGGGCAACTGGCCATCAAACGGGAAAATATCTATATTTCAGTATTTTAGGAATTGGCATAGCAAT (double strand) [aioBA regulatory region, 170 bp]” reads “binds”.

Values taken from article PMC5335332, “Arsenite oxidation regulator AioR regulates bacterial chemotaxis towards arsenite in Agrobacterium tumefaciens GW4” (Scientific Reports, 2017).
